Test results reported in patent publication US20240174985A1, “METHOD FOR PRODUCING OVARIAN SOMATIC CELL-LIKE CELLS, AND METHOD FOR INDUCING DIFFERENTIATION OF PRIMATE PLURIPOTENT STEM CELLS INTO OVARIAN SOMATIC CELL-LIKE CELLS” (Kyoto University, priority 2021, published 2024).

How the values were obtained:
Format in all cases: cell-based
human iPS cells [1] = assay: Induction of differentiation from human iPS cells into ovarian somatic cell-like cells (FACS of OSR1-tdTomato/NR5A1-EGFP reporters, observation of embryoid bodies); conditions: Activin A 10 ng/ml added between day 2 and day 4
Text: In order to conveniently observe the expression of genes typical at each developmental stage, a human iPS cell line 1390G3 was genetically modified, and a DNA sequence that emits red fluorescence (tdTomato) with the expression of the OSR1 gene, green fluorescence (EGFP) with the expression of the NR5A1 gene, and red fluorescence (tdTomato) with the expression of the FOXL2 gene was manufactured (see FIG. 1, and after introduction into the chromosome, a portion of “PGKp-Neo (or Puro)-pA” portion was deleted with Cre). An iPS cell line into which two DNA sequences of OSR1 and NR5A1 had been introduced (which may be hereinafter abbreviated as “OTNG”), and an iPS cell line into which two DNA sequences of NR5A1 and FOXL2 had been introduced (which may be hereinafter abbreviated as “NGFT”) were manufactured. In the present test, the OTNG strain was used in most of the experiments. Furthermore, NR5A1 and SF1 are the same gene.
The cells at each stage were analyzed using a flow cytometer (BD FACSAria III).
The ES cells of monkeys and human iPS cells are considered to be similar to EpiLC in a slightly advanced state in terms of differentiation, as compared with mouse ES cells. Therefore, in the examination using monkey or human pluripotent stem cells in the present test, step 0 was omitted and the process was started from step 1. […]

human iPS cells [2] = assay: Quantitative PCR of marker genes in cells induced from human iPS cells; conditions: Activin A 10 ng/mL added between day 2 and day 4, fibronectin plane culture
Text: The relative expression level of each marker gene was confirmed using a PCR apparatus (BIO-RAD CFX384 Real-Time System) with the following primers and conditions. In the tables, the PPIA gene and the RPLP0 gene were used as housekeeping genes. The difference in qPCR is a difference from the average value taken as “(PPIA+RPLP0)/2”. In addition, the ERCC gene was used as an absolute control between samples.

[3] = tested on: cynomolgus monkey ES cells

B1: Activin A: TGF-β family member produced by multiple cell species during development (protein, UniProt P08476 311-426, looked up)
Inhibin beta A chain: GLECDGKVNICCKKQFFVSFKDIGWNDWIIAPSGYHANYCEGECPSHIAGTSGSSLSFHSTVINHYRMRGHSPFANLKSCCVPTKLRPMSMLYYDDGQNIIKKDIQNMIVEECGCS
Human iPS cells [1]; plane culture, FACS day 15
  proportion of the OSR1− (negative) and SF1+ (positive) cells: further increased
Human iPS cells [1]; step 1 plane culture on fibronectin-coated plate
  size of the embryoid bodies: increased over time
Human iPS cells [2]; day 15
  expression of GATA3 and HOXB9: decreased
Human iPS cells [2]; day 27
  expression of FOXL2: almost equivalent to that in the ovarian somatic cells collected from the living body
[3]; added in step 1: bFGF 50 ng/mL entire period, Activin A 10 ng/ml one day from day 1, FACS days 2, 4, 6
  expression of OSR1: acted toward enhancing the expression of OSR1
[3]; addition of Activin A after day 1 of step 1, FACS days 16 and 28
  improvement of induction: no improvement was observed
[3]; bFGF 50 ng/ml and Activin A 10 ng/ml (only from day 1) in step 1, days 14 and 21
  improvement of the induction of NR5A1-positive cells: not recognized
